From the supplement of paper PMC7125110
± gives the standard error. Variants at the floor of the assay were thinned out.

B1: glmS ribozyme (parent)
chain: AUAAAAGCGCCAGAACUACAGAAAUGUAGUUGACGAGGAGGAGGUUUAUCGAAUUUUCGGCGGAUGCCUCCAAA

What was measured:
Conditions in all cases: with glucosamine-6-phosphate
glucosamine-6-phosphate [1] = variants of: B1; test: self-cleavage kobs at 640 uM GlcN6P; higher = faster cleavage; RNA array
Outline: (§1)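 Barcoded ribozyme variants on sequenced MiSeq chips were transcribed in situ by E. coli RNA polymerase and followed at 37 °C through a hybridised Cy3 probe. Glucosamine-6-phosphate at 40 μM to 10 mM in HEPES/KCl/Mg(OAc)2 buffer was flowed in, and tiles were imaged over ~14 h. Signals were normalised to baseline and to non-cleaving reference variants, and per-tile medians were fit to one- or two-exponential decays to give kobs. Weighted Michaelis–Menten fits across concentrations gave kcat and KM.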

glucosamine-6-phosphate [2] = variants of: B1; test: self-cleavage kobs at 2500 uM GlcN6P; higher = faster cleavage; RNA array
Outline: as §1

glucosamine-6-phosphate [3] = variants of: B1; test: self-cleavage kobs at 10000 uM GlcN6P; higher = faster cleavage; RNA array
Outline: as §1

## AUAAAAGCGCCAGUCCUACAGAAAUGUAGUUGUCGAGGAGGAGGUUUACGGAAUUUUCGGCGGAUGCCACCAAA
glucosamine-6-phosphate [1]
  self-cleavage kobs at 640 uM GlcN6P: 0.0012 ± 0.00039 s⁻¹
glucosamine-6-phosphate [2]
  self-cleavage kobs at 2500 uM GlcN6P: 0.000218 ± 9.1e-05 s⁻¹

## AUAAAAGCGCCAGCACUACAGAAAUGUAGUUGACGAGGAGGAGGUUUAUCGAAUUUUCGGCGGAUGCCCCUAAA
glucosamine-6-phosphate [1]
  self-cleavage kobs at 640 uM GlcN6P: 4.76e-05 ± 8.5e-06 s⁻¹
glucosamine-6-phosphate [2]
  self-cleavage kobs at 2500 uM GlcN6P: 0.000131 ± 1.4e-05 s⁻¹

## AUAAAAGCGCCAGGACUACAGAAAUGUAGUUGACGAGGAGGACGUUUAUCUAAUUUUCGGCGGGUGCCUCCAAA
glucosamine-6-phosphate [1]
  self-cleavage kobs at 640 uM GlcN6P: < 1e-05 s⁻¹

## AUAAAAGCGCCAGGACUACAGAAAUGUAGUUGACGAGUAGGAGGUUUAUCGAAUUUUCGGCGGAUACCUCCAAA
glucosamine-6-phosphate [1]
  self-cleavage kobs at 640 uM GlcN6P: < 1e-05 s⁻¹

## AUAAAAGCGCCAGCACUACAGAAAUGUAGUUGACGUGAAGGAGGUUUAUCGAAUUUUCGGCGGAUGCCACCAAA
glucosamine-6-phosphate [1]
  self-cleavage kobs at 640 uM GlcN6P: 7.64e-05 ± 1.8e-05 s⁻¹

## AUAAAAGCGCCAGCACUACAGAAAUGUAGUUGACGAGGAGGAGGUUUAUCGAAUUUUCGGUGGAUGCGUCCAAA
glucosamine-6-phosphate [1]
  self-cleavage kobs at 640 uM GlcN6P: 0.0001 ± 3.3e-05 s⁻¹

## AUAAAAGCGCCAGUACUACAGAAAUGUAAUUGACGAGGAGGAGGUUGAUUGACUUUUCGGCGGAUGCCUGCAAA
glucosamine-6-phosphate [1]
  self-cleavage kobs at 640 uM GlcN6P: 0.00022 ± 4.5e-05 s⁻¹
glucosamine-6-phosphate [2]
  self-cleavage kobs at 2500 uM GlcN6P: 0.000165 ± 3.4e-05 s⁻¹

## AUAAAAGCGCCAGUACUACAGAAAUGUACUUGACGAGGAGGAGGUUUGUCGAAUUUUCGGCGGAAGCCUCCAAA
glucosamine-6-phosphate [1]
  self-cleavage kobs at 640 uM GlcN6P: < 1e-05 s⁻¹

## AUAAAAGCGCCAGCACUACAGAAAUGUAGUUGACGAGGAGAAGGUUUAUCGAAUUUUCGGCGGAUGCCUUCAAA
glucosamine-6-phosphate [1]
  self-cleavage kobs at 640 uM GlcN6P: 0.00173 ± 0.00026 s⁻¹
glucosamine-6-phosphate [2]
  self-cleavage kobs at 2500 uM GlcN6P: 0.00489 ± 0.0012 s⁻¹
glucosamine-6-phosphate [3]
  self-cleavage kobs at 10000 uM GlcN6P: 0.0111 ± 0.0021 s⁻¹

## AUAAAAGCGCCAGCAUUACAGAAAUGUAGUUGACGAGGAGGAGUUUUAUCGAAUUUUCGGCGGAUGCCGCCAAA
glucosamine-6-phosphate [1]
  self-cleavage kobs at 640 uM GlcN6P: < 1e-05 s⁻¹

## AUAAAAGCGCCAGGACUACAGAAAUGUAGUUGACGAGCAGGAGAUUUAUCGAAUUUUCGGCGGAUGCCUCCAAA
glucosamine-6-phosphate [1]
  self-cleavage kobs at 640 uM GlcN6P: < 1e-05 s⁻¹
glucosamine-6-phosphate [2]
  self-cleavage kobs at 2500 uM GlcN6P: < 1e-05 s⁻¹
glucosamine-6-phosphate [3]
  self-cleavage kobs at 10000 uM GlcN6P: < 1e-05 s⁻¹

## AUAAAAGCGCCAGUACUACAGAAAUGUAGUUGACGAGGAGGACGUUUAUCGAAUUUUCGGCGGAUGCCUCCAAA
glucosamine-6-phosphate [1]
  self-cleavage kobs at 640 uM GlcN6P: < 1e-05 s⁻¹
glucosamine-6-phosphate [2]
  self-cleavage kobs at 2500 uM GlcN6P: < 1e-05 s⁻¹
glucosamine-6-phosphate [3]
  self-cleavage kobs at 10000 uM GlcN6P: < 1e-05 s⁻¹

## AUAAAAGCGCCAGUACUACAGAAAUAUAGUUGACGAGGAGGAGGUUUAUCGAAUUUUCGGCGGAUGCGUCCAAA
glucosamine-6-phosphate [1]
  self-cleavage kobs at 640 uM GlcN6P: 5e-05 ± 2e-05 s⁻¹
glucosamine-6-phosphate [2]
  self-cleavage kobs at 2500 uM GlcN6P: 4.16e-05 ± 1.8e-05 s⁻¹

## AUAAAAGCGCCAGGACUACAGAAAUGUAUGUGCCGAGGAGGAGGUUUAUCGAAUUUUCGGGGGAUUCCUCCAAA
glucosamine-6-phosphate [1]
  self-cleavage kobs at 640 uM GlcN6P: < 1e-05 s⁻¹
glucosamine-6-phosphate [2]
  self-cleavage kobs at 2500 uM GlcN6P: < 1e-05 s⁻¹

## AUAAAAGCGCCAGCACUACAGAAAUGUAGUUGACGAGGAGGAGGUUUAUCGAAUUUUCCGCGGAUGCCUCAAAA
glucosamine-6-phosphate [1]
  self-cleavage kobs at 640 uM GlcN6P: < 1e-05 s⁻¹

## AUAAAAGCGCCAGUACUACAGAAAUGUACUUGACGAGGAGGAGGUUUAUCUAAUUUUCGGCGGAUGCCUCCAAA
glucosamine-6-phosphate [1]
  self-cleavage kobs at 640 uM GlcN6P: < 1e-05 s⁻¹

## AUAAAAGCGCCAGGAUUACAGAAAUGUAGUUGACGAGGAGGAGGCUUAUCGAAUUUUCGGCGGAUGCCUCCAAA
glucosamine-6-phosphate [1]
  self-cleavage kobs at 640 uM GlcN6P: 0.000986 ± 0.00024 s⁻¹
glucosamine-6-phosphate [2]
  self-cleavage kobs at 2500 uM GlcN6P: 0.00371 ± 0.00065 s⁻¹

## AUAAAAGCGCCAGCACUACAGAAAUGUAGUUGACGAGGAGGAUGUUUAUCGAAUUAUCGGCGGAUGCUUCCAAA
glucosamine-6-phosphate [1]
  self-cleavage kobs at 640 uM GlcN6P: 9.14e-05 ± 2.6e-05 s⁻¹
glucosamine-6-phosphate [2]
  self-cleavage kobs at 2500 uM GlcN6P: 0.000133 ± 3.7e-05 s⁻¹

## AUAAAAGCGCCAGGACUACAGAAAUGUAGUUGACUACGAGGAGGUUCAUCGAAUUUUCGGCGGAUGCCUCCAAA
glucosamine-6-phosphate [1]
  self-cleavage kobs at 640 uM GlcN6P: < 1e-05 s⁻¹

## AUAAAAGCGCCAGUACUACAGAAAUGUAGUUGACAAGGAGGAGGUUUAUCGAAUUUUCGGCGGGUGCCUCCAAA
glucosamine-6-phosphate [1]
  self-cleavage kobs at 640 uM GlcN6P: < 1e-05 s⁻¹

## AUAAAAGCGCCAGCACUACAGAAAUGUAGUUGACGAGGAGGAGGUUUAUCGAAUUGUCGGCGGAUGCAUCCAAA
glucosamine-6-phosphate [1]
  self-cleavage kobs at 640 uM GlcN6P: 9.34e-05 ± 3.4e-05 s⁻¹
glucosamine-6-phosphate [2]
  self-cleavage kobs at 2500 uM GlcN6P: 8.68e-05 ± 2.2e-05 s⁻¹

## AUAAAAGCGCCAGUGCUACAGAAAUGUAGUUGACGAAGAGGAGGUUUAUCGAAUUUUCGGCGGAUGCCUCCAAA
glucosamine-6-phosphate [1]
  self-cleavage kobs at 640 uM GlcN6P: 0.000119 ± 2.8e-05 s⁻¹
glucosamine-6-phosphate [2]
  self-cleavage kobs at 2500 uM GlcN6P: 0.000224 ± 4.9e-05 s⁻¹
